The chains are these.
B1: FLAG-ADD1 WT (adducin-1), transiently expressed in HEK293 cells [not stated] / GST-TPX2 aa 120–370 fusion protein [human] (parent)
chain 1: MNGDSRAAVVTSPPPTTAPHKERYFDRVDENNPEYLRERNMAPDLRQDFNMMEQKKRVSMILQSPAFCEELESMIQEQFKKGKNPTGLLALQQIADFMTTNVPNVYPAAPQGGMAALNMSLGMVTPVNDLRGSDSIAYDKGEKLLRCKLAAFYRLADLFGWSQLIYNHITTRVNSEQEHFLIVPFGLLYSEVTASSLVKINLQGDIVDRGSTNLGVNQAGFTLHSAIYAARPDVKCVVHIHTPAGAAVSAMKCGLLPISPEALSLGEVAYHDYHGILVDEEEKVLIQKNLGPKSKVLILRNHGLVSVGESVEEAFYYIHNLVVACEIQVRTLASAGGPDNLVLLNPEKYKAKSRSPGSPVGEGTGSPPKWQIGEQEFEALMRMLDNLGYRTGYPYRYPALREKSKKYSDVEVPASVTGYSFASDGDSGTCSPLRHSFQKQQREKTRWLNSGRGDEASEEGQNGSSPKSKTKWTKEDGHRTSTSAVPNLFVPLNTNPKEVQEMRNKIREQNLQDIKTAGPQSQVLCGVVMDRSLVQGELVTASKAIIEKEYQPHVIVSTTGPNPFTTLTDRELEEYRREVERKQKGSEENLDEAREQKEKSPPDQPAVPHPPPSTPIKLEEDLVPEPTTGDDSDAATFKPTLPDLSPDEPSEALGFPMLEKEEEAHRPPSPTEAPTEASPEPAPDPAPVAEEAAPSAVEEGAAADPGSDGSPGKSPSKKKKKFRTPSFLKKSKKKSDS
chain 2: RSLRLSAQKDLEQKEKHHVKMKAKRCATPVIIDEILPSKKMKVSNNKKKPEEEGSAHQDTAEKNASSPEKAKGRHTVPCMPPAKQKFLKSTEEQELEKSMKMQQEVVEMRKKNEEFKKLALAGIGQPVKKSVSQVTKSVDFHFRTDERIKQHPKNQEEYKEVNFTSELRKHPSSPARVTKGCTIVKPFNLSQGKKRTFDETVSTYVPLAQQVEDFHKRTPNRYHLRSKKDDINLLPSKSSVTKICRDPQTP

Variants of B1 are the subject of the experiment. Kind of experiment: GST pull-down (immunoblot quantification). The following applies: with GST-TPX2 aa 120–370 fusion protein [human]; lysates from HEK293 cells; five independent experiments; means ± s.d.; parent: 100; read off a plot. On the technique in general: In western blotting, separated proteins are transferred to a membrane and probed.
As to chain 1 S726A, the percent of parent stood at 40%.

The record behind these values is paper PMC6073210, “Adducin‐1 is essential for spindle pole integrity through its interaction with TPX2” (EMBO Reports, 2018).
